This note sets out measurements from article PMC11007441, “Deciphering the role of Enterococcus faecium cytidine deaminase in gemcitabine resistance of gallbladder cancer” (The Journal of Biological Chemistry, 2024).

The test system of series [1] is Nc1ccn([C@@H]2O[C@H](CO)[C@@H](O)C2(F)F)c(=O)n1. Nature of the series: purified protein. As to conditions: 0.2 uM enzyme; gemcitabine 0.5-8 mM; initial rates 0-1 min.
Series [2] deals with the molecule itself. Nature of the series: crystal structure; vapor diffusion, EfCDA at 15 mg/ml; apo-I (0.1 M Tris pH 8.5, 2.2 M (NH4)2SO4), apo-II (0.1 M sodium cacodylate pH 6.5, 20% PEG 4000) and complex with dFdU (co-crystallised with gemcitabine 1:10); tetramer from two molecules of the asymmetric unit by crystal symmetry.

For “EfCDA (cytidine deaminase of Enterococcus faecium) (Enterococcus lactis)”, the Michaelis constant (Km) in series [1] is 8.44 mM.

B1: cytidine deaminase of Enterococcus faecium (EfCDA) (enzyme, UniProt Q3XXR8 1-132, looked up)
chain: MAELKQEWINTAIEALDKAYVPYSHFPVGACLVTESGKIYQGINIENASFGLTNCAERTAFFKAVSEGEKTFTHLVVAGHTPDPISPCGACRQVMAEFCSPDMPVTLVGDNGVTKATTVRALLPYAFTEKDL
notes: cytidine deaminase of Enterococcus faecium, full-length protein with a single CDA catalytic domain, 132 amino acids; UniProt A0A133N269, WP_002291109.1; Homotetramer in the crystal: molecules A and B in the asymmetric unit, the tetramer completed by a symmetry operation; One zinc ion per chain (C55, C88, C91); also called EfCDD; T-CDA; source: E. coli BL21 (DE3), purified (HisTrap HP, HiTrap Q, …)
As to B1, the “stoichiometry N” value in series [2] was 4.
